Reference: paper PMC9482650, “Quantitative fragmentomics allow affinity mapping of interactomes” (Nature Communications, 2022)

Legend:
Experiment in all cases: holdup assay
Set-up in all cases: key: below the threshold = too weak to quantify, mostly under pKd 3.1 to 4
DLG3_1, Q92796 = biological target: T1, DLG3_1, Q92796
T1 sequence (Q92796 125-227, limits assumed, looked up): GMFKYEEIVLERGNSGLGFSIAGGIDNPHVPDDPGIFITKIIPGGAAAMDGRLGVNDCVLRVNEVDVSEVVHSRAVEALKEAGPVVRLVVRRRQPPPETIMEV

DLG4_2, P78352 = biological target: DLG4_2, P78352
DLG4_3, P78352 = biological target: DLG4_3, P78352
FRMPD2_1, Q68DX3 = biological target: FRMPD2_1, Q68DX3
FRMPD2_2, Q68DX3 = biological target: FRMPD2_2, Q68DX3
GOPC, Q9HD26 = biological target: GOPC, Q9HD26
GRIP2_4, Q9C0E4 = biological target: GRIP2_4, Q9C0E4
HTRA2, O43464 = biological target: HTRA2, O43464
HTRA3, P83110 = biological target: T2, HTRA3, P83110
T2 sequence (P83110 354-453, limits assumed, looked up): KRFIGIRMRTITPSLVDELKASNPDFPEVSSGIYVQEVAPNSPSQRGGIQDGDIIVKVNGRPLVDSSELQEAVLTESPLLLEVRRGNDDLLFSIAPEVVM

IL16_4, Q14005 = biological target: IL16_4, Q14005
Inadl_1, Q8NI35 = biological target: Inadl_1, Q8NI35
Inadl_6, Q8NI35 = biological target: Inadl_6, Q8NI35
Inadl_9, Q8NI35 = biological target: Inadl_9, Q8NI35
LAP2, Q96RT1 = biological target: LAP2, Q96RT1
LIN7B, Q9HAP6 = biological target: T3, LIN7B, Q9HAP6
T3 sequence (Q9HAP6 88-185, limits assumed, looked up): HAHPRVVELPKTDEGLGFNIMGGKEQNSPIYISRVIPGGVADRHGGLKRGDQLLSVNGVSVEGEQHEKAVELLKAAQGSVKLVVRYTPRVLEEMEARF

LNX1_1, Q8TBB1 = biological target: LNX1_1, Q8TBB1
MAGI2_3, Q86UL8 = biological target: MAGI2_3, Q86UL8
NHERF4_2, Q86UT5 = biological target: NHERF4_2, Q86UT5
PCLO, Q9Y6V0 = biological target: T4, PCLO, Q9Y6V0
T4 sequence (Q9Y6V0 4491-4600, limits assumed, looked up): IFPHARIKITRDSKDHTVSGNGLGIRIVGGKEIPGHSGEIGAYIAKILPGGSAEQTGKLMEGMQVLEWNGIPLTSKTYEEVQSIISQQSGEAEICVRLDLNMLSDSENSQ

PDLIM1, O00151 = biological target: PDLIM1, O00151
PDZD2_2, O15018 = biological target: T5, PDZD2_2, O15018
T5 sequence (O15018 329-429, limits assumed, looked up): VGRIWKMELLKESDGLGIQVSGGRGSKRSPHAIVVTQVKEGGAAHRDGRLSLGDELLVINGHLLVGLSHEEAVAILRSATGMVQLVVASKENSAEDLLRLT

RAPGEF6, Q8TEU7 = biological target: T6, RAPGEF6, Q8TEU7
T6 sequence (Q8TEU7 525-625, limits assumed, looked up): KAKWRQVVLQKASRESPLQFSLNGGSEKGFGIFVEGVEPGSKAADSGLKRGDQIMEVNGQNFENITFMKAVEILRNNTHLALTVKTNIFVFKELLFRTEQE

SCRIB_3, Q14160 = biological target: SCRIB_3, Q14160
SNTG1, Q9NSN8 = biological target: T7, SNTG1, Q9NSN8
T7 sequence (Q9NSN8 52-150, limits assumed, looked up): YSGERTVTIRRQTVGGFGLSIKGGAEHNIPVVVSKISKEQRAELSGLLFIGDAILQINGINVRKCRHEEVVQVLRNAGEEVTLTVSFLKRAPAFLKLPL

TIAM2, Q8IVF5 = biological target: T8, TIAM2, Q8IVF5
T8 sequence (Q8IVF5 885-986, limits assumed, looked up): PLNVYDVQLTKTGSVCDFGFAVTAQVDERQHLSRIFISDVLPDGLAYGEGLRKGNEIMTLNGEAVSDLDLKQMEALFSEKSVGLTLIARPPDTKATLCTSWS

TJP1_3, Q07157 = biological target: TJP1_3, Q07157
TJP2_1, Q9UDY2 = biological target: TJP2_1, Q9UDY2
TX1BP3, O14907 = biological target: T9, TX1BP3, O14907
T9 sequence (O14907 10-122, limits assumed, looked up): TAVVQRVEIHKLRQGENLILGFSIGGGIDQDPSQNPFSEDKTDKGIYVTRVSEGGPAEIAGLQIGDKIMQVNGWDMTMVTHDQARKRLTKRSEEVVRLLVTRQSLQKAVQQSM

[1] = plain residues with an end cap or a label only (N-terminal biotin on a linker: ado-ado)
[2] = plain residues with an end cap or a label only (N-terminal biotin on a linker: ahx)

Sequence of PDLIM1, O00151 (O00151 1-87): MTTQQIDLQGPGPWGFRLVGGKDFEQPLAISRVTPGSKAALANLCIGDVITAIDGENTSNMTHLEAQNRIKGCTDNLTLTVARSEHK
Sequence of FRMPD2_2, Q68DX3 (Q68DX3 944-1038): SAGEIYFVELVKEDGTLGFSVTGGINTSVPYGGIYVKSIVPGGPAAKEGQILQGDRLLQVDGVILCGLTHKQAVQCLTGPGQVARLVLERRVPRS
Sequence of LAP2, Q96RT1 (Q96RT1 other isoform, or with tags, fused parts or gaps): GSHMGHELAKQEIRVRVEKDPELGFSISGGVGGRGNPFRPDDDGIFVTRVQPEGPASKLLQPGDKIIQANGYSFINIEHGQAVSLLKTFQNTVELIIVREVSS
Sequence of MAGI2_3, Q86UL8 (Q86UL8 600-682): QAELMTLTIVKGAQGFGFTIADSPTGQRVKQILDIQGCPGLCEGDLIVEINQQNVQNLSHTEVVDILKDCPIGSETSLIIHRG
Sequence of LNX1_1, Q8TBB1 (Q8TBB1 261-371): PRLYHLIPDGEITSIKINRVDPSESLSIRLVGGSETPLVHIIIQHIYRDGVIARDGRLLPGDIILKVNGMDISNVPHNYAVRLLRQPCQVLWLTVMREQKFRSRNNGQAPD
Sequence of Inadl_1, Q8NI35 (Q8NI35 113-229): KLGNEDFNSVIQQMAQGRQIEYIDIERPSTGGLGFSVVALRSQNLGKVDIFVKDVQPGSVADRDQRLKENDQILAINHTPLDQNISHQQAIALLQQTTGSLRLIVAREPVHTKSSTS
Sequence of Inadl_6, Q8NI35 (Q8NI35 1058-1167): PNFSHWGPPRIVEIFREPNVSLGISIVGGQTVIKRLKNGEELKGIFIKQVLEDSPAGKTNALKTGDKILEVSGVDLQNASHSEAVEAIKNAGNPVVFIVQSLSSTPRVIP
Sequence of DLG4_3, P78352 (P78352 306-403): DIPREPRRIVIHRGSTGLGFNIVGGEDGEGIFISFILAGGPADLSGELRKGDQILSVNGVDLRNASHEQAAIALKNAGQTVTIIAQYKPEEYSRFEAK
Sequence of FRMPD2_1, Q68DX3 (Q68DX3 770-861): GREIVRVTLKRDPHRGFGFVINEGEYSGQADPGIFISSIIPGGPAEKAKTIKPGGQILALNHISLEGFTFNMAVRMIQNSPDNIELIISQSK
Sequence of GRIP2_4, Q9C0E4 (Q9C0E4 446-548): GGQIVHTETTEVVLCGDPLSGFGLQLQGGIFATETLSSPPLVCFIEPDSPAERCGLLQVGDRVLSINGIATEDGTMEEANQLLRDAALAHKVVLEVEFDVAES
Sequence of TJP1_3, Q07157 (Q07157 416-512): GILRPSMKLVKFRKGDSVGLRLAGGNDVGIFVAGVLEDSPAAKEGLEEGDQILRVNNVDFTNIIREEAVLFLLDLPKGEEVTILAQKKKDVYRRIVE
Sequence of DLG4_2, P78352 (P78352 155-259): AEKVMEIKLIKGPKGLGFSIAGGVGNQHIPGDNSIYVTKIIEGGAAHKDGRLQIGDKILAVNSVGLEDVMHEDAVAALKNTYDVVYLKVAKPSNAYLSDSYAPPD
Sequence of SCRIB_3, Q14160 (Q14160 999-1103): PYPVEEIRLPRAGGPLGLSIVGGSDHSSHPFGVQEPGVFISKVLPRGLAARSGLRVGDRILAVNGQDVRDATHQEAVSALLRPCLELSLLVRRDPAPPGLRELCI
Sequence of Inadl_9, Q8NI35 (Q8NI35 1530-1615): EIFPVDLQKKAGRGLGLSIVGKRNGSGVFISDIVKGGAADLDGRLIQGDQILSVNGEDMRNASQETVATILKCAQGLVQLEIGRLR
Sequence of IL16_4, Q14005 (Q14005 1229-1329): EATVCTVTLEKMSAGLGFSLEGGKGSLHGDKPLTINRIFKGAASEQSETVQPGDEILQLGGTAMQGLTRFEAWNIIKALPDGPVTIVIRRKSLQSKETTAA
Sequence of HTRA2, O43464 (O43464 355-458): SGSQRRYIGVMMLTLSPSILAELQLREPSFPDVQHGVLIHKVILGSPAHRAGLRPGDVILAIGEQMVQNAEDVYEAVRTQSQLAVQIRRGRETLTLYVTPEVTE
Sequence of TJP2_1, Q9UDY2 (Q9UDY2 24-128): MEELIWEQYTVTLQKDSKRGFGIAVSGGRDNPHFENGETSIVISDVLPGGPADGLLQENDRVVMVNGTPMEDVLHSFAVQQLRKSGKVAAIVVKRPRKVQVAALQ
Sequence of NHERF4_2, Q86UT5 (Q86UT5 220-308): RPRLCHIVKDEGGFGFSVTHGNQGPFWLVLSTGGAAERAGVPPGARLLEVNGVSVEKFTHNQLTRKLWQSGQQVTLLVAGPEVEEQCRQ

Binder: DGVNEKVSCV [HTR2A, P28223]
- pKd (DLG3_1, Q92796; [1]): below the threshold
- pKd (DLG4_2, P78352; [1]): 4.74
- pKd (DLG4_3, P78352; [1]): below the threshold
- pKd (FRMPD2_1, Q68DX3; [1]): below the threshold
- pKd (FRMPD2_2, Q68DX3; [1]): 4.65
- pKd (GOPC, Q9HD26; [1]): below the threshold
- pKd (GRIP2_4, Q9C0E4; [1]): below the threshold
- pKd (HTRA2, O43464; [1]): below the threshold
- pKd (HTRA3, P83110; [1]): 3.94
- pKd (IL16_4, Q14005; [1]): 3.56
- pKd (Inadl_1, Q8NI35; [1]): below the threshold
- pKd (Inadl_6, Q8NI35; [1]): 3.57
- pKd (Inadl_9, Q8NI35; [1]): below the threshold
- pKd (LAP2, Q96RT1; [1]): below the threshold
- pKd (LIN7B, Q9HAP6; [1]): 3.79
- pKd (LNX1_1, Q8TBB1; [1]): 4.48
- pKd (MAGI2_3, Q86UL8; [1]): 4.72
- pKd (NHERF4_2, Q86UT5; [1]): below the threshold
- pKd (PCLO, Q9Y6V0; [1]): below the threshold
- pKd (PDLIM1, O00151; [1]): below the threshold
- pKd (PDZD2_2, O15018; [1]): 6
- pKd (RAPGEF6, Q8TEU7; [1]): below the threshold
- pKd (SCRIB_3, Q14160; [1]): 3.97
- pKd (SNTG1, Q9NSN8; [1]): 4.33
- pKd (TIAM2, Q8IVF5; [1]): 4.01
- pKd (TJP1_3, Q07157; [1]): below the threshold
- pKd (TJP2_1, Q9UDY2; [1]): 3.82
- pKd (TX1BP3, O14907; [1]): 3.61

Binder: APSRKLNTEI [TIAM1, Q13009]
- pKd (DLG3_1, Q92796; [2]): below the threshold
- pKd (DLG4_2, P78352; [2]): 3.88
- pKd (DLG4_3, P78352; [2]): below the threshold
- pKd (FRMPD2_1, Q68DX3; [2]): below the threshold
- pKd (FRMPD2_2, Q68DX3; [2]): below the threshold
- pKd (GOPC, Q9HD26; [2]): below the threshold
- pKd (GRIP2_4, Q9C0E4; [2]): below the threshold
- pKd (HTRA2, O43464; [2]): below the threshold
- pKd (HTRA3, P83110; [2]): below the threshold
- pKd (IL16_4, Q14005; [2]): below the threshold
- pKd (Inadl_1, Q8NI35; [2]): below the threshold
- pKd (Inadl_6, Q8NI35; [2]): below the threshold
- pKd (Inadl_9, Q8NI35; [2]): below the threshold
- pKd (LAP2, Q96RT1; [2]): below the threshold
- pKd (LIN7B, Q9HAP6; [2]): below the threshold
- pKd (LNX1_1, Q8TBB1; [2]): below the threshold
- pKd (MAGI2_3, Q86UL8; [2]): below the threshold
- pKd (NHERF4_2, Q86UT5; [2]): below the threshold
- pKd (PCLO, Q9Y6V0; [2]): below the threshold
- pKd (PDLIM1, O00151; [2]): below the threshold
- pKd (PDZD2_2, O15018; [2]): below the threshold
- pKd (RAPGEF6, Q8TEU7; [2]): below the threshold
- pKd (SCRIB_3, Q14160; [2]): below the threshold
- pKd (SNTG1, Q9NSN8; [2]): below the threshold
- pKd (TIAM2, Q8IVF5; [2]): below the threshold
- pKd (TJP1_3, Q07157; [2]): below the threshold
- pKd (TJP2_1, Q9UDY2; [2]): below the threshold
- pKd (TX1BP3, O14907; [2]): below the threshold

Binder: QSYPSKHDYV [CLDN18, P56856]
- pKd (DLG3_1, Q92796; [1]): below the threshold
- pKd (DLG4_2, P78352; [1]): 3.56
- pKd (DLG4_3, P78352; [1]): below the threshold
- pKd (FRMPD2_1, Q68DX3; [1]): below the threshold
- pKd (FRMPD2_2, Q68DX3; [1]): below the threshold
- pKd (GOPC, Q9HD26; [1]): below the threshold
- pKd (GRIP2_4, Q9C0E4; [1]): below the threshold
- pKd (HTRA2, O43464; [1]): 3.71
- pKd (HTRA3, P83110; [1]): 4.19
- pKd (IL16_4, Q14005; [1]): 3.78
- pKd (Inadl_1, Q8NI35; [1]): below the threshold
- pKd (Inadl_6, Q8NI35; [1]): below the threshold
- pKd (Inadl_9, Q8NI35; [1]): 4.12
- pKd (LAP2, Q96RT1; [1]): below the threshold
- pKd (LIN7B, Q9HAP6; [1]): below the threshold
- pKd (LNX1_1, Q8TBB1; [1]): 3.73
- pKd (MAGI2_3, Q86UL8; [1]): 3.62
- pKd (NHERF4_2, Q86UT5; [1]): 3.59
- pKd (PCLO, Q9Y6V0; [1]): below the threshold
- pKd (PDLIM1, O00151; [1]): below the threshold
- pKd (PDZD2_2, O15018; [1]): 4.86
- pKd (RAPGEF6, Q8TEU7; [1]): below the threshold
- pKd (SCRIB_3, Q14160; [1]): below the threshold
- pKd (SNTG1, Q9NSN8; [1]): below the threshold
- pKd (TIAM2, Q8IVF5; [1]): below the threshold
- pKd (TJP1_3, Q07157; [1]): below the threshold
- pKd (TJP2_1, Q9UDY2; [1]): 4.16
- pKd (TX1BP3, O14907; [1]): 4.17

Binder: EPQYQPGENL [SRC, P12931]
- pKd (DLG3_1, Q92796; [1]): below the threshold
- pKd (DLG4_2, P78352; [1]): below the threshold
- pKd (DLG4_3, P78352; [1]): below the threshold
- pKd (FRMPD2_1, Q68DX3; [1]): below the threshold
- pKd (FRMPD2_2, Q68DX3; [1]): below the threshold
- pKd (GOPC, Q9HD26; [1]): below the threshold
- pKd (GRIP2_4, Q9C0E4; [1]): below the threshold
- pKd (HTRA2, O43464; [1]): 3.53
- pKd (HTRA3, P83110; [1]): below the threshold
- pKd (IL16_4, Q14005; [1]): 3.5
- pKd (Inadl_1, Q8NI35; [1]): below the threshold
- pKd (Inadl_6, Q8NI35; [1]): below the threshold
- pKd (Inadl_9, Q8NI35; [1]): below the threshold
- pKd (LAP2, Q96RT1; [1]): below the threshold
- pKd (LIN7B, Q9HAP6; [1]): below the threshold
- pKd (LNX1_1, Q8TBB1; [1]): below the threshold
- pKd (MAGI2_3, Q86UL8; [1]): below the threshold
- pKd (NHERF4_2, Q86UT5; [1]): below the threshold
- pKd (PCLO, Q9Y6V0; [1]): below the threshold
- pKd (PDLIM1, O00151; [1]): 3.56
- pKd (PDZD2_2, O15018; [1]): below the threshold
- pKd (RAPGEF6, Q8TEU7; [1]): below the threshold
- pKd (SCRIB_3, Q14160; [1]): 3.71
- pKd (SNTG1, Q9NSN8; [1]): below the threshold
- pKd (TIAM2, Q8IVF5; [1]): below the threshold
- pKd (TJP1_3, Q07157; [1]): below the threshold
- pKd (TJP2_1, Q9UDY2; [1]): below the threshold
- pKd (TX1BP3, O14907; [1]): below the threshold
